According to paper PMC8271855:

Target: Recombinant green fluorescent protein (CopGFP, amplified from the pTurboGFP plasmid)
Assay: SEC

Q: How did the stoichiometry N turn out when “Recombinant green fluorescent protein (CopGFP, amplified from the pTurboGFP plasmid) (natural protein)” was run?
A: Its stoichiometry N is 2.
